Experimental data from patent US20040235062A1, “Method of analyzing protein occurring in cell or substance interacting with the protein” (priority 2002, published 2004).

biological target: T1, GC-A receptors (Homo sapiens, UniProt P16066); assay: Selectivity experiment: peptide mixture bound to GC-A expressed cell membrane fraction, MALDI-TOF-MS; format: binding; details: 10 pmol/μl each, CHO/GC-A vs CHO host cell membrane fraction
T1 construct: expressed in transfected cells; host or cells: CHO/GC-A cells (Chinese hamster ovary), membrane fraction
T1 sequence (P16066 33-1061): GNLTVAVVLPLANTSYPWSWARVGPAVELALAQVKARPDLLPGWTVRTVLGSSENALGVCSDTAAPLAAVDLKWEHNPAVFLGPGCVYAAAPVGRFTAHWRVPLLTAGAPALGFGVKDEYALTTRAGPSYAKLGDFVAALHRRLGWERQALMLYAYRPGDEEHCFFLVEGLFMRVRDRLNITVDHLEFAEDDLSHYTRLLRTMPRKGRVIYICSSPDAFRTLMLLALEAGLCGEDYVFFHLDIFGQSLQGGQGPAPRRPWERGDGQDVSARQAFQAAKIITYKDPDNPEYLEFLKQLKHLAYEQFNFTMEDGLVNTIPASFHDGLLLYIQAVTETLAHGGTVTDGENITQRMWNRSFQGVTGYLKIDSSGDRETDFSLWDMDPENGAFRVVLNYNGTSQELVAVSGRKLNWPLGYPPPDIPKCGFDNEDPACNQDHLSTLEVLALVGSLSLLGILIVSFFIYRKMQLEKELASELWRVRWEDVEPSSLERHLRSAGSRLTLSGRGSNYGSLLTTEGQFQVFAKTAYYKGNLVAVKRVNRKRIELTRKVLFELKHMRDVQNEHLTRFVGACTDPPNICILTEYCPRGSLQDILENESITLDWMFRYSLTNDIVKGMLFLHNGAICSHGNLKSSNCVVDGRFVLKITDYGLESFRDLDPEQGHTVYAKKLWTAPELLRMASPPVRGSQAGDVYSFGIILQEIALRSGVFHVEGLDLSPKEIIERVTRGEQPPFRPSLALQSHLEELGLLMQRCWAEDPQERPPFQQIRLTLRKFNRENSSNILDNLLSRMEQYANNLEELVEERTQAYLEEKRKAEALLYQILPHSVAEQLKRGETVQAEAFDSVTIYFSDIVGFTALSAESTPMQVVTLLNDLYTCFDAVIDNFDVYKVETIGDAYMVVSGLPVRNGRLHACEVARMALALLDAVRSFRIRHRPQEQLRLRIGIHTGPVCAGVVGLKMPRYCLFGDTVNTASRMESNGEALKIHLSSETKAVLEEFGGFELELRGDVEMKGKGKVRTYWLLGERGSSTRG
Method: An albumin-coated membrane fraction (CHO/GC-A cells and CHO host cells) was obtained in the same manner as in Step 1. and Step 2. of Example 1.
The resulting suspension was centrifuged to obtain pellets. The resulting pellets were further washed with 500 μl of distilled water, and centrifugation was performed again to obtain a ligand-bound membrane fraction.
MALDI-TOF-MS measurement was made in the same manner as in Step 4. of Example 1.

Substance | interaction with GC-A receptors (judgement)
substance P | do not interact with GC-A receptors
angiotensin I (DRVYIHPFHL; Angiotensin-1; UniProt P01019 25-34, looked up) | do not interact with GC-A receptors
melanocyte-stimulating hormone [α-MSH] | do not interact with GC-A receptors
